Test results taken from PMC5719408, “Multivalent cross-linking of actin filaments and microtubules through the microtubule-associated protein Tau” (Nature Communications, 2017).

Target: NBD-conjugated actin from α-skeletal muscle (F-actin) (UniProt P68135)
Test: NBD-F-actin fluorescence titration
Settings: reference: unphosphorylated Tau(254–284) peptide; sites S262

Tau (2N4R) 254-284 (from UniProt P10636-8) pS262 Tau(254–284) peptide
binding against the reference: weaker
